Experiment: label from the status in PepcDB records

Sequence	protein production
AVEARQSATEAERRRHRLEQILKTVPSCVVQLDRDGQFVFANQRAIDVLGLSQSELKDRLYNDPEWEIRDLDGHPIPDAELPFRQVLETGQPLSDARHTIHWPDGTEKVLSVNGAPLFDDDGAVESVVCTLTDIT	not failed
AWQAAVASNEPFGEAQLAQRIRRYLPEQGQLFVGNSLVVRLIDALAQLPAGYPVYSNRGASGIDGLIATAAGVQRASARPTLAIVGDLSALYDLNSLALLRQASAPLVLIVVNNNGGQIFSMLPTPQDERRQFYLMPQDVDFSHAAVMFGLAYHRPDDWPSLDEALAGAWRRAGATVIELAVNETDGAQTLQQLLAQVSRL	failed
AYPGFELDIDLALPGRGVTALFGHSGSGKSTCLRCIAGLEKAAEGEVTINGETWQDSRRNLFVAPHRRALGYVFQDANLFRHLTVRRNLAFGLKRIAAAERRVELEQACALLGIEHLLERMPERLSGGEQQRVGIARALLTSPRLLLMDEPLASLDLKRKGEILPYLERLHEELDIPVLYVSHSPDEVARLADHLVLLENGKVRASGPIGETLARVDLPLALDDDAGVVIEGTVSDHDPAYGLLTLVLPGSALQMRVAHAPLAPGKRLRFKVQARDVSLNLRDDAQSSILNRLPVRVLELVDTDTAAHVLVRLDAGGNPLLARITRYSRDQLQLR	failed
CAAIAALSAVGLPSDRFSFEGFLPSKSSQRLLQLEKLKDETQTLIFYEAPHRILDCVTDMMHIFGEDRPVGFAREITKTFETIKKMTLKELVSFIQNDHHQQKGEIVLIVGGNPVNK	failed
CLEDILSATKMVINLCLPQFRPRIHCNKISADGYEVENLISEDLTKRSHGFRTEYFIKPPVYVTVSFPFNVEICRINIDLTAGGGQNVTGLEMYTSASSSRVSWNTPQCRTLGPAEPSVPDKEAFTLVGKVLLKNQSQVVFSHRGFKARPPFGAMEATLPSPAVVAQELWNKGALSLSHVAHLRICITHVTGGGIPCIKRLEVWGQPAKTCSQEVIDSILLVTSENLPQDVALQAPALPMESDCDPGDQPESQQAPSSLQKLAEIIQDVPEEFLDPITLEIMPCPMLLPSGKVIDQSTLEKCNRSEATWGRVPSDPFTGVAFTPHSQPLPHPSLKARIDHFLLQHSIPGCHLLGRAQTALAVIPSSIVLPSQKRKIEQAEHVPDSNFGVNASCFSATSPLVLPTTSEHTAKKMKATNEPSLTHMDCSTGPLSHEQKLSQSLEIALASTLGSMPSFTARLTRGQLQHLGTRGSNTSWRPGTGSEQPGSILGPECASCKRVFSPYFKKEPVYQLPCGHLLCRPCLGEKQRSLPMTCTACQRPVASQDVLRVHF	not failed
CSACGETVMPGSRKLEYGGQTWHEHCFLCSGCEQPLGSRSFVPDKGAHYCVPCYENKFA	not failed
CSPVRERRLEHQLEPGDTLAGLALKYGVTMEQIKRANRLYTNDSIFLKKTLYIPILTEPRDLFN	not failed
DAHSTIDSRIIHFKLEFANEFLAEKLQVALQSPVYNIYRLRIIDGKPYVLEQTYMSTDVIPGITEDILQKSIYNYIEGKLGLHIASATKILRASSSSENEQHYLQLLPTEPVFEVEQVAYLDNGTPFEYSISRHRYDLFE	not failed
DAPQGAVIILPGDAESPDWPDTVGPLRRKFPDVGWSSLSITLPDAQDNTLLPREPDAAAGDANAAKPEETPKDAAAKAPDPAAEAEALAAVATAKAAADEERNKAQAELIFARIESAISFAQQNKARNIVLLGHSSGAYWAARFLNERPSPAVQKLVMVAA	failed
DARKGNASAPVVAVEFFDYQCGYCKGALPELAAALSGRNDVAVVMKEFPILGSTSEAAARLALAVRAEHGDEAYLGFHNALLSHKGGLNEAALSILAGAAGYDYPALVARGRQDDITSIIDGNRRLAQALSISGTPAFVFRDGEVVPGMMAADRLTAAFDRLSASTAAAQ	failed
DDANVVRDRDLEVDTTLKSLSQQIENIRSPEGSRKNPARTCRDLKMCHSDWKSGEYWIDPNQGCNLDAIKVFCNMETGETCVYPTQPSVAQKNWYISKNPKDKRHVWFGESMTDGFQFEYGGQGSDPADVAIQLTFLRLMSTEASQNITYHCKNSVAYMDQQTGNLKKALLLKGSNEIEIRAEGNSRFTYSVTVDGCTSHTGAWGKTVIEYKTTKSSRLPIIDVAPLDVGAPDQEFGFDVGPVCFL	failed
DDLLIVRGVNLYPSEIEHAVLDINGVAPYYRIDLYEEDNLDVMELTVERAEGSSKDHSELRDDVLSRLQSVLSFTPDQLNLVNPGTIERTEVGKIQRVYDHRN	failed
DDNNAAEVDRQVAQDSAEPKTGENAAAGDSSSTNKNAEKIVAVDISAETEKTYLTHVANDMVIPAYADAAKQSDLLHDLAQKHCQKAPVSGDELQALRDQWLVLAQAWASAEMVNFGPATASMSNLYINYYPDERGLVHGGVADLITANPALTAEQLANESAVVQGIPGLEEALYANDSLDAGQCAYVMSASSALGTRLKDIEKNWQQNAIKLLAIDKTAESDQGLNQWFNSLLSLVETMKSNAIEQPLGLSGKAKGHLPAATAGQSRAIINAKLATLNKAMTDPVLTAILGSNNENTVADTLSTALADTTALLAQMPEDLATADKATQQELYDHLTNITRLIKSQLIPTLGIRVGFNSTDGD	not failed
DDNSYSLGDIWIAVATVVPEGNNVYYLRLDDGDKLWPAATNYPNYQPKPNQRALVNFTILADSTQSNLGGFSHYIKVNAIHNILTKSIAKNEGAANDSIYGTDPVSIYNNNMWIGDGYLNIYFETLWGGKTAHFINLIQPDAENDPYTLEFRHNAYDDPQYTIGAGRVAFNLSSLPDTKGETVDLVVNYWTSEGKQAYKLKYNSDKTKMEDTSQGYTNDSISNITDMK	not failed
DEWTDVKKVMALGFFDGVHLGHQAVIKQAKQIAEEKGLQTAVLTFDPHPSVVLSNIRKQVKYLTPLEDKAEKMANLGVDIMYVVRFTTQFSELSPRAFVDNYLVALNVKHVVAGFDYSYGKKGEGKMTELENYANGRFEVTIVDKQTAASDKISSTNIRRAITEGELEEANQLLGYP	not failed
DGKLYTLNYGKVSSIALDPIEKKPLFHFWPGSCAFSIGTVGCNMHCKHCQNWEISQADESFPYLQDATPESIVRLARHYECESIAYTYNEPTIWYEFVLDTAKLAKKEGLNNILVTNGYINEEPFRELAKYIDAMNIDIKAFNDKFYMKISSVPSGEPSRRTAVIAKKEFGIHVELTYLIIPTLNDNEEEIRRFARWVVEELGDDTPVHFSRFFPHYKLLNLPPTPIQTLEKAYKIAKEEGLKFVYLGNVPGHEGENTYCPRCGKLLIERWGFEILRYEIKDGKCKY	failed
DGRCISLLKILMTNFCIFDCAYCVNRVSSRVERARFSVEEVVTLTVEFYRRNYIEGLFLSSGIIRSPDDTMADMVRIAKTLREREHFRGYIHLKTIPDAAPELIEQAGLYADRLSINVELPTEAGLDRFAPEKSATGIRKAMAEVRLKREASREPSFSGRRPSRFA	failed
DGVRLLEELGAINAEAKDAKKRLTSIGRQLARLPIDPRLARMVLEAPKYGALKEVMIIAAALSIQDPRERPSDKQQSSDDKHRRFFHEESDFLTFV	failed
DHPEEGDTAPDFTRPLVNDEFWEDESLASVCADSDRVVLVFHAMDGAFPATYIWNEIRDRAWHEQATVVGISISTPYEHKQLLKEREIEGDYRLFSDPANGVAQQYSIDMALDGMAGIEEPRPSVFVLDSDRTIEYAWVAQEWPDFPDYDDVEAQL	failed
DIDTFYSKVHNIIGQLINAKNFFIAKYEKDSDTLSFSYYVDEKTSNLAKDFKPRKLSNRYSELVLRRRETVLLTYQEMMSLHLEGETKKPQDDIHSWLGVPLIYSGQLLGVMVLQSYYYKTTYNQQDAELLNFVSNHVSAAIKRRELAD	failed
DIQVITQTGVPGQPLNFKAEPESETSILLSWTPPRSDTIANYELVYKDGEHGEEQRITIEPGTSYRLQGLKPNSLYYFRLAARSPQGLGASTAEISARTMQS	not failed
DKDNTDEPKETAKALGKLASESKKEILLESAYLIFDDNQLKGWQALINTGVEIKALTNSMASNDLTTNHSGYAGRRQDMLEHGIQLYELKPETELCEESTKDVSKCAPILPYGLHAKSAVFDDKIASIGSFNFNLRSTYLNTESILIIENQKIAEQLTQDIEHAMDEENSWHLKLQEGDVRWYSGDKSWESEPETGRWERFQSGFLQLLPIE	failed

— a protein production outcome set (Wang et al. 2014)
